Source: the DeepSol protein solubility set

Test: soluble on expression in E. coli; label from the status in PepcDB or PDB records

| Sequence | soluble on expression in E. coli |
| --- | --- |
| MKYGYFDNDNREYVITRPDVPAPWTNYLGTEKFCTVISHNAGGYSFYNSPEYNRVTKFRPNATFDRPGHYVYLRDDDSGDYWSISWQPVAKSLDEAQYQIRHGLSYSKFQCDYNGIHARKTLFVPKGEDAEIWDVVIKNTSDQVRTISAFSFVEFSFSHIQSDNQNHQMSLYSAGTAYRPGLIEYDLYYNTDDFEGFYYLASTFDPDSYDGQRDRFLGLYRDEANPLAVEQGRCSNSAQTCYNHCGSLHKQFTLQPGEEIRFAYILGIGKGNGERLREHYQDVANIDAAFAAIKAHWDERCAKFQVKSPNQGLDTMINAWTLYQAETCVVWSRFASFIEVGGRTGLGYRDTAQDAISVPHANPEMTRKRIVDLLRGQVKAGYGLHLFDPDWFDPEKEDVAPSKSPTVVPTPSDEDKIHGIKDTCSDDHLWLIPTICKYVMETGETSFFDQMIPYADGGEASVYEHMKAALDFSAEYVGQTGICKGLRADWNDCLNLGGGESSMVSFLHFWALQEFIDLAKFLGKDQDVNTYTEMAANVREACETHLWDDEGGWYIRGLTKNGDKIGTAQQQEGRVHLESNTLAVLSGLASQERGEQAMDAVDEHLFSPYGLHLNAPSFSTPNDDIGFVTRVYQGVKENGAIFSHPNPWAWVAETKLGRGDRAMKFYDALNPYNQNDIIEKRIAEPYSYVQFIMGRDHQDHGRANHPWLTGTSGWAYFAVTNYILGVQSGFTGLSVDPCIPSDWPGFEVTRQWRGATYHIQVENPDHVSKGVKSITLNGAPIQGRIPPQAQGSDNQVVVVLGHHHHHH | soluble |
| MKYIEPHFISFTQHTLKSQLIPKSFHGMKILQFSDLHLGYYFSLQHLSQVVSKINAVNPDIVLFTGDLIDNYQTYTDTPFVASILKNIQAPFGKFAIYGNHDHGGYGTEYYEHIMRESGFELLLNSKKRIRLMDNSEISIFGLDDILLGKPKIEKTLQHARQNTYNIVLVHEPDIAPQISKYPINLQLSGHSHGGQVQIPFLGAIITPSLAKDYIEGFYTMQDLTLYVNRGLGRTRVPFRFMSKPEITIFTLQHSLEHHHHHH | not soluble |
| MKYPFYYCCDNLDIKSISVIGDFNNWDGGKNILKRHDDGTWMTEIELSPGKYRYKFLINDSILFNDPNALIYTYDDKGGTASFIIIDESNKRIINTKPASLNIESYSFLSVDKELSYCENGERKCYKDKHSSIMLKIGFSDITGLHTVNAIWYAPNNEIHEIQESVLNDGEKNENRKNEALFQININDDTIAGEWKLQIFINGSLALEDSFTVELKQPEVLDKTALDDAAMLSADLEVPDFLIEEDMQNEFEAPEFEVESNLQTNAEKEEISEEDLLGLFDDIKEIDMPEKDTSGNQKTPAPDETEMPADGNIMNLFDEIRISELKDEKAQDTENNTESTSKEAEESDSAIDELLELREFIDSSQNSEKDSIESSGGKSGEEANEEDISDIFIDIKNRTD | not soluble |
| MKYQKLENQEANWKWIYLIRKHREGENITRYEERSLQEAKAQELLESQNYPEKIEEWIKNHLSPALPIKLDQAIRARRKRFFNGEKQHTKKKSIDLEYAVWLRLSKYSRKMKMTLSETITYMIDERESKAQFENQMAAMKTSLKNLLK | not soluble |
| MLAAAHKAGGTFAAESILILRNRLSGVADILADFPDDVPVYVAEAPVLDGIVGFHLHRGILALGRRVRDDGLEQMTAALPASSLVLVGCGISNHDNLGAMFRNAAAFYADAVLLDETCCDPLYRKALRVSVGSVLSVPYHRGGGAVEMLERLSEEGFAIWGLSPDGKTEIRDIPRSERMALVIGTEGEGLPQSVLSRFQTARIAQSPQVDSLNAGTASGLALYQMAGVMGRV | not soluble |
| MLAAFQQQQTRKFSPITNTSASCLNMQPNPPKISIAPSVISVIGVHMEKHKLKIKTGQNIVLSASILPIQATNKELIWSNMNSDIITIYPKGDTVTITGKSAGKAVVIVTTAEGKFRDLCVIHVQPYMTNPK | not soluble |
| MLAAGEGKRMGACKPLLPLGASTVLAHVAKTLLPAINGPLVVVTGHHGDAVTAEALRLSLETAENTTPQDGMFSSVRTGIAHIVGRVDGVLVLPADIPFVRTATCALVVEAFRRHRAAVTYPTLCGERGHPPLLDADTMRAVLASSGDGGLRGVLLALERQGGTTHDVAVADEGIVTDMDTPADHAQLVARHPLRHIPTPREREALLEMAGTPARVRAHCRMVARAALAMAAHLEATRRGFISPFARQSAPHGISTSGAHAEPRSVPASTTTHAVHAEGNTTLPHTATAHVACPPPDVTTGPMPTCQPGHMPDHMPGTARDAAQQAPAATASPQRLDRPLIHAAATLHDICKGTQRHEAAGGALLTRHGFPEVGSIIAAHRDIAPQAGPEIDEAALVMLADKYVRGVSLIPVEERFDERLREWAHRPDVACDIAARKARVLMVRDLFESETATELFPLLQRKVRRGTFLEHHHHHH | not soluble |
| MLAERGANITGLDISGPMLQQGREKAQATGVDDRVEFMRGDAARLPFPDDHFDTVFAMRFFHLADTPAAFLAEMRRVSKEQVFFDTFNRFSTRSIYNWALPMGSRLYSRWEIDRLLDGAGLELTDANHDWLLPYGFYRKIPNELAASFRSLDTALGGTPLGEKLASVSYWNTHVLEHHHHHH | not soluble |
| MLALPAEFEQFHWMVDMVQNVDMGLIVINRDYNVQVWNGFMTHHSGKQAHDVIGKSLFEIFPEIPVEWFKLKTKPVYDLGCRSFITWQQRPYLFHCRNVRPVTQQAKFMYQNVTLNPMRTPTGAINSLFLSIQDATSEALVSQQASSQ | not soluble |
| MLAQRGTFAECGAEVLAVAMSPGRRHITKPVCEITFGLRESNVLTSTMVLNAGAGVPHDAPASGGTLFGLTDKEVEQMSNFKLLVIHLGGVKNHLIYKARLILRNVNKPCIIICESPVDCEDFAKIGVKTSKVMPSEEDVKTEGHIVDIVSGVIRGETISQEKLDEIIRKVKLALGDALEHHHHHH | soluble |
| MLCASAEVEVFYDTDNNRKSDPAVFWQNPLNRSKFPLLSQIANRYLTTPASSAESERVFSGAGRVSTKLRRKMSTKSLSKSVFLQQNQKVLGFKIGLD | not soluble |
| MLCFFDPGNFDIGDSVNDVEVKFNRAWTSVIGTKIDFAEKYSINIEGYYKYVFDRGYITADTSTGTITPSFNFDGVGKVWGFDIQLQKLESRYWDGWISYTYTWAKYNDPSGGNNGISNGSTNTINDSWYYPSFHRFHNFNLVLNIKPLLWFNIALRFGFASGQPRRRIDNKIYPYPVLIVNEDNEMVILQKYRRNSWYDENERTPWSFPLDIKFSFFPVNKNGRTSMEIYAAGENMMSLFYSPPGRTTFNQYTGKEDQGSSSGSFDLPIPMVSFGIKWRY | not soluble |
| MLCHTLISSFNNHIWRFLIMENKMNDNRVPRERVAILIDSGCDVTEELIRQYNMKLLRLHVIYPEKDYSDDLDISPQTVYERFPGEIPHTSTPSPQEVKDMADELKREGYTHVLAFAISSGLSGTYNTMCSVLNEEEELTSFVLDTRNISFGSGVLAVWAAQKLEEGMPYEELVRLLPGKVQDSKILYYMDTLTYLQKGGRIGLVTSIVGNILNLKPIISCNCEGVYYTVAKIRGSKQGMTKLLAEAKDFAGDGPVWFSLLNGNAAAASNEMLKRITEALPEGKHLLSKQIAASLAVHTGPGLLGIGILKNP | not soluble |
| MLDLQISKKTVDPLKRPPHSVEAEQSIIGGLMLDNQVWDKVSNKLCETDFYRTEHRILFRAISALAKKDQPFDVVTLLDALKTRNELDDAGGEAYLFELANNTPSVANVTAYADIVREKSVQRQLIAVATEIADSAYNPAGREVPELLDMAETKVFAIGEQTASDGGPENIKSILVRAVEKIDALYHNGDAITGLATGLSDLDEMTSGLQPSDLIIVAGRPSMGKTTLVMNMAEHAAIKAGKPVLVFSMEMPADSLAMRMMSSLGRIDQHRIRTGKLDDNDWPRVTSAVHMLSEAPLFIDDTPALSPGEMRARARRLAKEHGSLGLIVVDYLQLMKVPGFNADNRTAEISEISRSLKSLAKELQVPVIALSQLNRSLEQRADKRPVMSDLRESGAIEQDADLICFIYRDEVYNEDSPDKGTAEIIVAKQRNGPIGKVRVAFLGKYTRFEDLAFNGYQGVE | not soluble |
| MLDMNPQETYTAPEEVNTPSRPIDENALLQRHQVMVKRVVNQLRVHATSHCSIEDMQQIGLIALVEAGRRYGDIDDTHFPAFAVCRVRGAILDELRRLDWRSRKTRQQAHELNDVTRDLTRSLGRMPTDSEIIKALGTDEQDYYNRQNAALAGEMQSLDQLMENSTDSHFGGQYDGMEHEHIRRSLDSALGRLSKRDQLLLTLFYQHELNLHEIALVLDLTPPRICQLHKQALKQLNQLMSS | not soluble |
